Data as given in patent US20240352102A1 (UNITED STATES GOVERNMENT AS REPRESENTED BY THE DEPARTMENT …, published 2024).

Experiments:
Assay in all cases: peptide microarray
Peptide_003 = target: T1, Peptide_003
T1 peptide: EVMEDHAGTYGLGDR

Peptide_036 = target: T2, Peptide_036
T2 peptide: RIPAKTPPAPKTPPS

Peptide_013 = target: T3, Peptide_013
T3 peptide: QTPTEDGSEEPGSET

Peptide_004 = target: T4, Peptide_004
T4 peptide: DHAGTYGLGDRKDQG

Peptide_018 = target: T5, Peptide_018
T5 peptide: TPTAEAEEAGIGDTP

Peptide_005 = target: T6, Peptide_005
T6 peptide: TYGLGDRKDQGGYTM

Peptide_007 = target: T7, Peptide_007
T7 peptide: DQGGYTMHQDQEGDT

Peptide_032 = target: T8, Peptide_032
T8 peptide: PRGAAPPGQKGQANA

Peptide_026 = target: T9, Peptide_026
T9 peptide: KSKDGTGSDDKKAKG

Peptide_028 = target: T10, Peptide_028
T10 peptide: DDKKAKGADGKTKIA

Peptide_031 = target: T11, Peptide_031
T11 peptide: KIATPRGAAPPGQKG

Peptide_001 = target: T12, Peptide_001
T12 peptide: MAEPRQEFEVMEDHA

Peptide_016 = target: T13, Peptide_016
T13 peptide: SETSDAKSTPTAEAE

Peptide_023 = target: T14, Peptide_023
T14 peptide: AAGHVTQARMVSKSK

Peptide_002 = target: T15, Peptide_002
T15 peptide: RQEFEVMEDHAGTYG

Peptide_022 = target: T16, Peptide_022
T16 peptide: LEDEAAGHVTQARMV

Peptide_020 = target: T17, Peptide_020
T17 peptide: AGIGDTPSLEDEAAG

Peptide_010 = target: T18, Peptide_010
T18 peptide: GDTDAGLKESPLQTP

Peptide_024 = target: T19, Peptide_024
T19 peptide: VTQARMVSKSKDGTG

Peptide_014 = target: T20, Peptide_014
T20 peptide: EDGSEEPGSETSDAK

Peptide_029 = target: T21, Peptide_029
T21 peptide: AKGADGKTKIATPRG

Peptide_019 = target: T22, Peptide_019
T22 peptide: EAEEAGIGDTPSLED

Peptide_012 = target: T23, Peptide_012
T23 peptide: ESPLQTPTEDGSEEP

Peptide_025 = target: T24, Peptide_025
T24 peptide: RMVSKSKDGTGSDDK

Peptide_009 = target: T25, Peptide_009
T25 peptide: QDQEGDTDAGLKESP

Peptide_033 = target: T26, Peptide_033
T26 peptide: APPGQKGQANATRIP

Peptide_008 = target: T27, Peptide_008
T27 peptide: YTMHQDQEGDTDAGL

Peptide_027 = target: T28, Peptide_027
T28 peptide: GTGSDDKKAKGADGK

Peptide_040 = target: T29, Peptide_040
T29 peptide: GEPPKSGDRSGYSSP

Peptide_070 = target: T30, Peptide_070
T30 peptide: VQIVYKPVDLSKVTS

Peptide_044 = target: T31, Peptide_044
T31 peptide: SPGTPGSRSRTPSLP

Peptide_043 = target: T32, Peptide_043
T32 peptide: SSPGSPGTPGSRSRT

Peptide_072 = target: T33, Peptide_072
T33 peptide: DLSKVTSKCGSLGNI

Peptide_065 = target: T34, Peptide_065
T34 peptide: NVQSKCGSKDNIKHV

Peptide_039 = target: T35, Peptide_039
T35 peptide: PPSSGEPPKSGDRSG

Peptide_046 = target: Peptide_046
Peptide_063 = target: T36, Peptide_063
T36 peptide: INKKLDLSNVQSKCG

Peptide_049 = target: T37, Peptide_049
T37 peptide: EPKKVAVVRTPPKSP

Peptide_062 = target: T38, Peptide_062
T38 peptide: KVQIINKKLDLSNVQ

Peptide_069 = target: T39, Peptide_069
T39 peptide: GGGSVQIVYKPVDLS

Peptide_042 = target: T40, Peptide_042
T40 peptide: RSGYSSPGSPGTPGS

Peptide_053 = target: T41, Peptide_053
T41 peptide: SAKSRLQTAPVPMPD

Peptide_057 = target: T42, Peptide_057
T42 peptide: KNVKSKIGSTENLKH

Peptide_073 = target: T43, Peptide_073
T43 peptide: VTSKCGSLGNIHHKP

Peptide_058 = target: T44, Peptide_058
T44 peptide: SKIGSTENLKHQPGG

Peptide_055 = target: T45, Peptide_055
T45 peptide: APVPMPDLKNVKSKI

Peptide_064 = target: T46, Peptide_064
T46 peptide: LDLSNVQSKCGSKDN

Measured: binding result

B1: mAb TRC35 (antibody, V domains shown)
VH: QVQLQQPGTELVKPGASVKLSCKASGYTFTSYWLQWVKQRPGQGLEWIGEIDPSDSYTNYNQKFKGKATLTVDTSSSTAYMQLSSLTSEDSAVYYCATLTGSWGQGTTLAVSS
VL: DVLLTQTPLSLPVSLGDQASISCRASQSIVDSNGNTFLEWYLQKSGQSPKVLIYKVSNRFSGVPDRFSGRGSGTDFTLKISRVEAEDLGVYYCFQGSHVPYTFGGGTKLEIK
notes: Mouse hybridoma monoclonal antibody raised in tau knockout mice against tau/poly(A) RNA complexes; IgG1 isotype, kappa light chain; also called TRC35 monoclonal antibody; hybridoma clone #35
no binding (tested: 1 ug/ml): all assays above
